In IntAct's records for PubMed 16292983:

B1: Ankyrin-2 (Homo sapiens), Q01484-2 (parent)
chain: MMNEDAAQKSDSGEKFNGSSQRRKRPKKSDSNASFLRAARAGNLDKVVEYLKGGIDINTCNQNGLNALHLAAKEGHVGLVQELLGRGSSVDSATKKGNTALHIASLAGQAEVVKVLVKEGANINAQSQNGFTPLYMAAQENHIDVVKYLLENGANQSTATEDGFTPLAVALQQGHNQAVAILLENDTKGKVRLPALHIAARKDDTKSAALLLQNDHNADVQSKMMVNRTTESGFTPLHIAAHYGNVNVATLLLNRGAAVDFTARNGITPLHVASKRGNTNMVKLLLDRGGQIDAKTRDGLTPLHCAARSGHDQVVELLLERGAPLLARTKNGLSPLHMAAQGDHVECVKHLLQHKAPVDDVTLDYLTALHVAAHCGHYRVTKLLLDKRANPNARALNGFTPLHIACKKNRIKVMELLVKYGASIQAITESGLTPIHVAAFMGHLNIVLLLLQNGASPDVTNIRGETALHMAARAGQVEVVRCLLRNGALVDARAREEQTPLHIASRLGKTEIVQLLLQHMAHPDAATTNGYTPLHISAREGQVDVASVLLEAGAAHSLATKKGFTPLHVAAKYGSLDVAKLLLQRRAAADSAGKNGLTPLHVAAHYDNQKVALLLLEKGASPHATAKNGYTPLHIAAKKNQMQIASTLLNYGAETNIVTKQGVTPLHLASQEGHTDMVTLLLDKGANIHMSTKSGLTSLHLAAQEDKVNVADILTKHGADQDAHTKLGYTPLIVACHYGNVKMVNFLLKQGANVNAKTKNGYTPLHQAAQQGHTHIINVLLQHGAKPNATTANGNTALAIAKRLGYISVVDTLKVVTEEVTTTTTTITEKHKLNVPETMTEVLDVSDEEGDDTMTGDGGEYLRPEDLKELGDDSLPSSQFLDGMNYLRYSLEGGRSDSLRSFSSDRSHTLSHASYLRDSAVMDDSVVIPSHQVSTLAKEAERNSYRLSWGTENLDNVALSSSPIHSGFLVSFMVDARGGAMRGCRHNGLRIIIPPRKCTAPTRVTCRLVKRHRLATMPPMVEGEGLASRLIEVGPSGAQFLGKLHLPTAPPPLNEGESLVSRILQLGPPGTKFLGPVIVEIPHFAALRGKERELVVLRSENGDSWKEHFCDYTEDELNEILNGMDEVLDSPEDLEKKRICRIITRDFPQYFAVVSRIKQDSNLIGPEGGVLSSTVVPQVQAVFPEGALTKRIRVGLQAQPMHSELVKKILGNKATFSPIVTLEPRRRKFHKPITMTIPVPKASSDVMLNGFGGDAPTLRLLCSITGGTTPAQWEDITGTTPLTFVNECVSFTTNVSARFWLIDCRQIQESVTFASQVYREIICVPYMAKFVVFAKSHDPIEARLRCFCMTDDKVDKTLEQQENFAEVARSRDVEVLEGKPIYVDCFGNLVPLTKSGQHHIFSFFAFKENRLPLFVKVRDTTQEPCGRLSFMKEPKSTRGLVHQAICNLNITLPIYTKESESDQEQEEEIDMTSEKNPQDEQERIEERLAYIADHLGFSWTELARELDFTEEQIHQIRIENPNSLQDQSHALLKYWLERDGKHATDTNLVECLTKINRMDIVHLMETNTEPLQERISHSYAEIEQTITLDHSEGFSVLQEELCTAQHKQKEEQAVSKESETCDHPPIVSEEDISVGYSTFQDGVPKTEGDSSATALFPQTHKEQVQQDFSGKMQDLPEESSLEYQQEYFVTTPGTETSETQKAMIVPSSPSKTPEEVSTPAEEEKLYLQTPTSSERGGSPIIQEPEEPSEHREESSPRKTSLVIVESADNQPETCERLDEDAAFEKGDDMPEIPPETVTEEEYIDEHGHTVVKKVTRKIIRRYVSSEGTEKEEIMVQGMPQEPVNIEEGDGYSKVIKRVVLKSDTEQSEDNNE

Variants of: B1
Conditions: with nac1_human SLC8A1, P32418

| Variant | effect of a mutation on the interaction |
| --- | --- |
| E1458G | disrupting interaction |
